{"source": "paper PMC12392098", "about": "“Predicting the DNA binding specificity of transcription factor mutants using family-level biophysically interpretable machine learning”", "binders": {"B1": {"name": "CAGCTG probe (dsDNA)", "DNA 1": "TAGCCAATAACTTCGTCCCTCAGCTGCATATAAGGAAGATCTAACCACCAATTTGG", "DNA 2": "CCAAATTGGTGGTTAGATCTTCCTTATATGCAGCTGAGGGACGAAGTTATTGGCTA"}, "B2": {"name": "CACGTG probe (dsDNA)", "DNA 1": "TAGCCAATAACTTCGTCCCTCACGTGCATATAAGGAAGATCTAACCACCAATTTGG", "DNA 2": "CCAAATTGGTGGTTAGATCTTCCTTATATGCACGTGAGGGACGAAGTTATTGGCTA"}}, "conditions_in_all_cases": "protein: recombinant; tags: N-terminal 6xHis; mScarlet fusion; chain copies: 2; label: 32P (SRI primer strand); blunt", "key": {"ASCL2 DBD R5K": {"molecular_target": "ASCL2 DBD R5K (human, UniProt Q99929 50-102, R55K)", "sequence (Q99929 50-102 R55K)": "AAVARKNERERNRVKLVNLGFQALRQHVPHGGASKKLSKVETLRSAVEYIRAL", "experiment": "EMSA; preferred over CACGTG probe; 32P EMSA: ~50 nM probe, 0.5/1/2 uM protein, 30 min, reagents as in Feng et al., gel at 4 C; fluorescent EMSA: 5x buffer (50 mM Tris pH 7.5, 250 mM NaCl, 5 mM MgCl2, 20% glycerol, 2.5 mM DTT, 2.5 mM EDTA, 250 ug/ml poly(dI-dC), 1 mg/ml BSA) used at 1x plus half volume protein dialysis buffer (20 mM HEPES pH 7.9, 200 mM NaCl, 10% glycerol, 2 mM MgCl2), gel 0.5x TBE at 4 C"}, "ASCL2 DBD V13R": {"molecular_target": "ASCL2 DBD V13R (human, UniProt Q99929 50-102, V63R)", "sequence (Q99929 50-102 V63R)": "as the sequence (Q99929 50-102 R55K) above, with K6R, V14R counted along it", "experiment": "EMSA; preferred over CAGCTG probe; 32P EMSA: ~50 nM probe, 0.5/1/2 uM protein, 30 min, reagents as in Feng et al., gel at 4 C; fluorescent EMSA: 5x buffer (50 mM Tris pH 7.5, 250 mM NaCl, 5 mM MgCl2, 20% glycerol, 2.5 mM DTT, 2.5 mM EDTA, 250 ug/ml poly(dI-dC), 1 mg/ml BSA) used at 1x plus half volume protein dialysis buffer (20 mM HEPES pH 7.9, 200 mM NaCl, 10% glycerol, 2 mM MgCl2), gel 0.5x TBE at 4 C"}, "ASCL2 DBD R5K+V13R": {"molecular_target": "ASCL2 DBD R5K+V13R (human, UniProt Q99929 50-102, R55K;V63R)", "sequence (Q99929 50-102 R55K/V63R)": "as the sequence (Q99929 50-102 R55K) above, with V14R counted along it", "experiment": "EMSA; preferred over CAGCTG probe; 32P EMSA: ~50 nM probe, 0.5/1/2 uM protein, 30 min, reagents as in Feng et al., gel at 4 C; fluorescent EMSA: 5x buffer (50 mM Tris pH 7.5, 250 mM NaCl, 5 mM MgCl2, 20% glycerol, 2.5 mM DTT, 2.5 mM EDTA, 250 ug/ml poly(dI-dC), 1 mg/ml BSA) used at 1x plus half volume protein dialysis buffer (20 mM HEPES pH 7.9, 200 mM NaCl, 10% glycerol, 2 mM MgCl2), gel 0.5x TBE at 4 C"}}}
{"binder": "B1", "values": [{"measurement": "binding result", "setting": "ASCL2 DBD R5K", "result": "binds"}]}
{"binder": "B2", "values": [{"measurement": "binding result", "setting": "ASCL2 DBD V13R", "result": "binds"}, {"measurement": "binding result", "setting": "ASCL2 DBD R5K+V13R", "result": "binds"}]}
